This note sets out measurements from article PMC10395195.

The target in assay [1] is Tle1^Vc (Vibrio cholerae E1). Nature of the assay: ITC.
Assay [2] concerns the target Tle1^Vc (Vibrio cholerae E1). Kind of assay: SPR.

With Tli1^tox- (natural protein), the Kd (commonly the free concentration of one partner at which half of the binding sites on the other are occupied at equilibrium, for simple one-to-one binding) in assay [1] was 0.35 nM. In assay [2], VgrG1^E1 (natural protein) had a Kd of 2030 nM.
